From patent publication US20130316022A1, “METHOD TO ENHANCE ANTIMICROBIAL ACTIVITY BY INCREASING pH” (University of Iowa Research Foundation, priority 2012, published 2013)

How the values were obtained:
S. aureus Xen29 = assay: S. aureus luminescence antibacterial assay, effect of pH; type: cell-based
Experimental: (§1) To assess the effect of pH on the antibacterial activity of lysozyme and lactoferrin, we used a luminescence assay of bacterial viability that has been described previously ^15. The bacteria used were S. aureus Xen29 (Caliper LifeSciences Bioware™, Hopkinton, Mass.) and E. coli DH5a (GIBCO BRL, Life Technologies, Grand Island, N.Y.) expressing a luminescence plasmid pCGLS1. E. coli were grown in Luria-Bertani medium containing ampicillin (100 μg/ml, to maintain the plasmid) at 30° C. with shaking. For S. aureus, kanamycin 10 μg/ml was used instead of ampicillin. Log phase bacteria were centrifuged and resuspended in 1% Tryptic Soy Broth medium with 10 mM HEPES titrated to pH values from 6.8-8.0. E. coli (5×10^6 CFU) or S. aureus (5×10^5 CFU) were incubated with the indicated concentrations of lysozyme or lactoferrin in 96-well plates (Optiplate-96, Perkin Elmer, Waltham, Mass.) in a total volume of 120 μl. Controls were the same conditions in the same plates, but without lysozyme or lactoferrin. After incubation at 30° C. for the indicated times, luminescence was measured with a luminometer (Spectra Max L, Molecular Devices, Sunnyvale, Calif.) and was reported as relative light units (RLU). A previous study^16 determined that reductions in luminescence have an excellent correlation with a decrease in CFU.

[1] = test system: E. coli DH5a expressing luminescence plasmid pCGLS1; assay: E. coli luminescence antibacterial assay, effect of pH; type: cell-based; details: pH values from 6.8-8.0 (FIG. 8)
Experimental: as §1

B1: lactoferrin (protein, UniProt P02788 20-710, looked up)
Lactotransferrin: GRRRSVQWCAVSQPEATKCFQWQRNMRKVRGPPVSCIKRDSPIQCIQAIAENRADAVTLDGGFIYEAGLAPYKLRPVAAEVYGTERQPRTHYYAVAVVKKGGSFQLNELQGLKSCHTGLRRTAGWNVPIGTLRPFLNWTGPPEPIEAAVARFFSASCVPGADKGQFPNLCRLCAGTGENKCAFSSQEPYFSYSGAFKCLRDGAGDVAFIRESTVFEDLSDEAERDEYELLCPDNTRKPVDKFKDCHLARVPSHAVVARSVNGKEDAIWNLLRQAQEKFGKDKSPKFQLFGSPSGQKDLLFKDSAIGFSRVPPRIDSGLYLGSGYFTAIQNLRKSEEEVAARRARVVWCAVGEQELRKCNQWSGLSEGSVTCSSASTTEDCIALVLKGEADAMSLDGGYVYTAGKCGLVPVLAENYKSQQSSDPDPNCVDRPVEGYLAVAVVRRSDTSLTWNSVKGKKSCHTAVDRTAGWNIPMGLLFNQTGSCKFDEYFSQSCAPGSDPRSNLCALCIGDEQGENKCVPNSNERYYGYTGAFRCLAENAGDVAFVKDVTVLQNTDGNNNEAWAKDLKLADFALLCLDGKRKPVTEARSCHLAMAPNHAVVSRMDKVERLKQVLLHQQAKFGRNGSDCPDKFCLFQSETKNLLFNDNTECLARLHGKTTYEKYLGPQYVAGITNLKKCSTSPLLEACEFLRK
notes: endogenous ASL antimicrobial protein, tested at 4 mg/ml
S. aureus Xen29; pH 6.8, 4 mg/ml lactoferrin, 60 minutes
  relative luminescence compared to control: 85.0 ± 9.3
S. aureus Xen29; pH 7.2, 4 mg/ml lactoferrin, 60 minutes
  relative luminescence compared to control: 73.6 ± 8.2
S. aureus Xen29; pH 7.6, 4 mg/ml lactoferrin, 60 minutes
  relative luminescence compared to control: 60.8 ± 4.8
S. aureus Xen29; pH 8.0, 4 mg/ml lactoferrin, 60 minutes
  relative luminescence compared to control: 39.8 ± 5.0
[1]
  effect of pH on E. coli killing: increasing pH increased S. aureus and E. coli killing

B2: lysozyme (protein, UniProt P61626 19-148, looked up)
Lysozyme C: KVFERCELARTLKRLGMDGYRGISLANWMCLAKWESGYNTRATNYNAGDRSTDYGIFQINSRYWCNDGKTPGAVNACHLSCSALLQDNIADAVACAKRVVRDPQGIRAWVAWRNRCQNRDVRQYVQGCGV
notes: endogenous ASL antimicrobial protein, tested at 1.25 mg/ml
S. aureus Xen29; pH 6.8, 1.25 mg/ml lysozyme, 30 minutes
  relative luminescence compared to control: 49.1 ± 3.4
S. aureus Xen29; pH 7.2, 1.25 mg/ml lysozyme, 30 minutes
  relative luminescence compared to control: 43.5 ± 1.5
S. aureus Xen29; pH 7.6, 1.25 mg/ml lysozyme, 30 minutes
  relative luminescence compared to control: 30.6 ± 2.3
S. aureus Xen29; pH 8.0, 1.25 mg/ml lysozyme, 30 minutes
  relative luminescence compared to control: 23.4 ± 0.8
[1]
  effect of pH on E. coli killing: increasing pH increased S. aureus and E. coli killing
